We go through three substances from publication PMC8770708.

Several values for one entry are separate records, joined by “and”; a condition that tells them apart may be missing. Equal values may be shown once.

Assay [1] concerns the target TraV, VirB7-like lipoprotein subunit of the pED208-encoded T4SS (IncFV plasmid pED208 (carried in E. coli)). Nature of the assay: cryo-EM structure; OMCC purified from E. coli MC4100(pED208-traB_(Strep4)) (WT) by StrepTrap and Superdex 200 in 50 mM Tris-HCl pH 8, 200 mM NaCl, 1 mM DTT, 1 mM EDTA, 0.06% DM-NPG, 0.1% digitonin; C1, C13 and C17 reconstructions.
Assay [2] has as its target TraK, VirB9-like subunit of the pED208-encoded T4SS (IncFV plasmid pED208 (carried in E. coli)). The description is as above.
In assay [3] the target is TraB with a C-terminal double twin-Strep tag (TraB_(Strep4)), VirB10-like subunit of the pED208-encoded T4SS (IncFV plasmid pED208 (carried in E. coli)). Nature of the assay: cryo-EM structure; OMCC purified in the same way from E. coli BL21(DE3, pKBV) producing only TraV, TraK and TraB_(Strep4); C13 reconstruction of the ORC, C17 and C16 reconstructions of the CC.
Assay [4] shares this target. Nature of the assay: cryo-EM structure; OMCC purified from E. coli MC4100(pED208-traB_(Strep4)) (WT) by StrepTrap and Superdex 200 in 50 mM Tris-HCl pH 8, 200 mM NaCl, 1 mM DTT, 1 mM EDTA, 0.06% DM-NPG, 0.1% digitonin; C1, C13 and C17 reconstructions.

The term stoichiometry N denotes a count of units in the complex or per binding partner. For “TraV, VirB7-like lipoprotein subunit of the pED208-encoded T4SS (natural protein)”, the stoichiometry N in assay [1] worked out at 26 copies.

In assay [2], “TraK, VirB9-like subunit of the pED208-encoded T4SS (natural protein)” yielded a stoichiometry N of 26 copies.

Consider “TraB with a C-terminal double twin-Strep tag (TraB_(Strep4)), VirB10-like subunit of the pED208-encoded T4SS (natural protein)”, for which the stoichiometry N in assay [3] was 16 and 17; in assay [4], 17 copies.
